Publication PMC10157364 (2023)
Residue numbers refer to the chain shown, from its start.

T1: human MIF treated with 0.2% Proclin300 (oxMIF surrogate) (human, UniProt P14174 1-115, treated with 0.2% Proclin300 to transform MIF into an oxMIF surrogate)
T1 chain: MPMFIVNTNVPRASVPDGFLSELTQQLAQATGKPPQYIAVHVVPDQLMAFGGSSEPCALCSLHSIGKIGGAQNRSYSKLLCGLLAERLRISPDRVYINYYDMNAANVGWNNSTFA

B1: ON103 (antibody, V domains shown)
VH: EVQLQESGGGLVQPGGSLRLSCAASGFTFSIYSMNWVRQAPGKGLEWVSSIGSSGGTTYYADSVKGRFTISRDNSKNTLYLQMNSLRAEDTAVYYCAGSQYLYGMDVWGQGTTVTVSS
VL: DIQMTQSPSSLSASVGDRVTITCRSSQRILTYLNWYQQKPGKAPKLLIYVGSHSQSGVPSRFRGSGSETDFTLTISGLQSEDSATYYCQQSFFTPLTFGGGTKVEIK
B2: C0008 (antibody, V domains shown)
VH: B1 VH with Q5L, Y101W
VL: B1 VL with L30M, Y49F, G51A, S80P, F93W
B3: ON203 (antibody, V domains shown)
VH: B1 VH
VL: B1 VL with L30M, S80P

Target: T1, human MIF treated with 0.2% Proclin300 …
Assay: SPR

**Q.** Which Kd does the source give for B1 here?
**A.** 3.7 nM

**Q.** Which Kd does the source give for B2 here?
**A.** 3.5 nM

**Q.** With B3 as the binder, how does the Kd read?
**A.** 6.1 nM

Target: mouse MIF treated with 0.2% Proclin300 (oxMIF surrogate) (mouse, UniProt P34884 1-115, treated with 0.2% Proclin300 to transform MIF into an oxMIF surrogate)
Assay: ELISA

**Q.** How did the EC50 turn out when B1 was run?
**A.** 4.6 nM

**Q.** How did the EC50 turn out when B2 was run?
**A.** 3.1 nM

**Q.** With B3 as the binder, how does the EC50 read?
**A.** 5.2 nM

Target: T1, human MIF treated with 0.2% Proclin300 …
Assay: ELISA

**Q.** How did the EC50 turn out when B1 was run?
**A.** 0.6 nM

**Q.** Which EC50 does the source give for B2 here?
**A.** 0.6 nM

**Q.** With B3 as the binder, how does the EC50 read?
**A.** 0.7 nM
